Laboratory results: publication PMC2602803
Like-named read-outs stand apart in the source and are kept apart here.

Key:
UHRF1 SRA domain (NP95) [1] = target: T1, UHRF1 SRA domain (NP95) (mouse, UniProt Q8VDF2 419-628); test: X-ray crystallography
T1 sequence: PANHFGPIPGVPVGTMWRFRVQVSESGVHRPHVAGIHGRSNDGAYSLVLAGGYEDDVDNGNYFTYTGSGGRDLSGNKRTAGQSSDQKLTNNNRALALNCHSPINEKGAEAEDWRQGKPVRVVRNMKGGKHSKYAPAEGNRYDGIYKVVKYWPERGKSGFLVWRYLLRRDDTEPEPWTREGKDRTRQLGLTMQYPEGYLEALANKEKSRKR

UHRF1 SRA domain (NP95) [2] = target: T1, UHRF1 SRA domain (NP95); test: X-ray crystallography; remark: listed apart in the source

| Binder | binding result (UHRF1 SRA domain (NP95) [1]) | binding result (UHRF1 SRA domain (NP95) [2]) |
| --- | --- | --- |
| unmethylated CpG 12-bp duplex (dsDNA) DNA 1: AACTGCGCAGTT DNA 2: AACTGCGCAGTT | binds |  |
| hemimethylated CpG 12-bp duplex (dsDNA, 5-methylcytosine at position 6 of strand 2 (…); strand 1 unmethylated) DNA 1: TCCATGCGCTGAC DNA 2: GTCAGCGCATGG |  | binds |
